From the nanobody polyreactivity screen of Harvey et al. (2022) come the findings set out here.

The series in a line: yeast display, Sf9 membrane polyspecificity reagent, FACS + sequencing; frameworks hold sequencing errors. Put shortly: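 Nanobodies came from a synthetic yeast display library in Saccharomyces cerevisiae BJ5465, induced with galactose for 36–48 hours and stained for 1 hour at 4 °C with 10% biotinylated, detergent-solubilized Sf9 membrane reagent. Cells were enriched on streptavidin microbeads and then FACS-sorted, with low and high (top ~1%) gates set on anti-HA fluorescence for expression and streptavidin fluorescence for reagent binding. Each polyreactivity label reflects the gate a clone came from. Genes were amplified by colony PCR, sequenced by MiSeq 2 × 250 and filtered by CDR length.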
For “QVQLVESGGGLVQAGGSLRLSCAASGRIFGTNDMGWYRQAPGKETELVAAIRATSGSTYYADSVKGRFTISRDNAKNTVYLQMNSLKPEDTAVYYCAAEIWRYNSYIKYWHRLDYWGQGTQVTVSS”, the “polyreactivity (PSR sort gate)” value is given as “high polyreactivity”.

Turning to “QVQLVESGGGLVQAGGSLRLSCAASGRIFGVNAMGWYRQAPGKERELVAAIFSGGSTYYADSVKGRFTISRDNAKNTVYLQMNSLKPEDTAGYYCAARFARYDWSMYYWGQGTQVTVSS”, the “polyreactivity (PSR sort gate)” value was “low polyreactivity”.

With “QVQLVESGGGLVQAGGSLRLSCAASGRIFGVNAMGWYRQAPGKERELVAAIFSGGSTYYADSVKGRFTISRDTAKNTVYLQMNSLKPEDTAVYYCAARFARYDWSMYYWGQGTQVTVSS”, the “polyreactivity (PSR sort gate)” value is reported as “low polyreactivity”.

As for “QVQLVESGGGLVQAGGSLRLSCAASGRIFGVNAMGWYRQAPGKERELVAAINYSGGRTSYADSVKGRFTISRDHAKNTVYLQMNSLKPEDTAVYYCAKYGLRGGYLYYYWGQGTQVTVSS”, the “polyreactivity (PSR sort gate)” value is listed as “high polyreactivity”.

For the sequence “QVQLVESGGGLVQAGGSLRLSCAASGRIFGVNAMGWYRQAPGKERELVAAITSSGGSTYYADSVKGRFTISRDHAKNTVYLQMNSLKPEDTAVYYCAAKYWYGKPYGSYGYWGQGTQVTVSS”, the “polyreactivity (PSR sort gate)” value is recorded as “high polyreactivity”.

Consider “QVQLVESGGGLVQAGGSLRLSCAASGRIFGVNAMGWYRQAPGKERELVAAITWSGGRTYYADSVKGRFTISRDNAKNTVFLLMNSMKQEDTAVYYCNTGLSGRRYGFGLSFCMDYWGQGTQVTVSS”, for which the “polyreactivity (PSR sort gate)” value is recorded as “low polyreactivity”.

In the case of “QVQLVESGGGLVQAGGSLRLSCAASGRIFGVNVMGWYRQAPGKERELVAGINSSGGSTYYADSVKGRFTISRDNAKNTVYLQMNSLKPEDTAVYYCDVRSIWRYGYWGQGTQVTVSS”, the “polyreactivity (PSR sort gate)” value was “high polyreactivity”.

For “QVQLVESGGGLVQAGGSLRLSCAASGRIFGVYAMGWYRQAPGKERELVAAITRRGGTTYYADSVKGRFTISRDNAKNTVYLQMNSLKPEDTAVYYCAAVFVTQSFIYDYYYWGQGTQVTVSS”, the “polyreactivity (PSR sort gate)” value is given as “high polyreactivity”.

For “QVQLVESGGGLVQAGGSLRLSCAASGRIFGVYAMGWYRQAPGKERELVAAITSSGGRTYYADSVKGRFTISRDNAKNTVYLQMNSLKPEDTAVYYCAALGLSRRGKFNYWGQGTQVTVSS”, the “polyreactivity (PSR sort gate)” value is “high polyreactivity”.

On to “QVQLVESGGGLVQAGGSLRLSCAASGRIFGVYAMGWYRQAPGKERELVAAIYSGSSTYYADSVKGRFTISRDNAKNTVYLQMNSLKPEDTAVYYCAAVSRDDNYHDYYYWGQGTQVTVSS”, for which the “polyreactivity (PSR sort gate)” value is recorded as “low polyreactivity”.

Take “QVQLVESGGGLVQAGGSLRLSCAASGRIFGVYAMGWYRQAPGKERELVASISDGTITNYADSVKGRFTISRDNAKNTVYLQMNSLKPEDTAVYYCAATWSFVYGDYFEYDYWGQGTQVTVSS”: the “polyreactivity (PSR sort gate)” value is on record as “low polyreactivity”.

Consider “QVQLVESGGGLVQAGGSLRLSCAASGRIFGVYAMGWYRQAPGKERELVASITWRGGSTYYADSVKGRFTISRDNAKNTVYLQMNSLKPEDTAVYYCAAAYWYAYEYWGQGTQVTVSS”, for which the “polyreactivity (PSR sort gate)” value is given as “high polyreactivity”.

As for “QVQLVESGGGLVQAGGSLRLSCAASGRIFGVYAMGWYRQAPGKERELVAVINGRGSRTYYADSVKGRFTISRDNAKNTVYLQMNSLKPEDTAVYYCAAGYPDSEYDYWGQGTQVTVSS”, the “polyreactivity (PSR sort gate)” value is reported as “high polyreactivity”.

Turning to “QVQLVESGGGLVQAGGSLRLSCAASGRIFGWNAMGWYRQPPGKERELVAAISADGNTYYADSVKGRFTISRDNAKNTVYLQMNSLKPEDTAVYYCNAYVYSGYSIRDYWGQGTQVTVSS”, the “polyreactivity (PSR sort gate)” value is reported as “high polyreactivity”.

Regarding “QVQLVESGGGLVQAGGSLRLSCAASGRIFGWYAMGWYRQAPGKERELVAAISSADSTNYADSVKGRFTIARDNAKNTVYLQMNSLKPEDTAVYYCNAEGLPGNVVYGYYYWGQGTQLTVSS”, the “polyreactivity (PSR sort gate)” value is given as “low polyreactivity”.

As for “QVQLVESGGGLVQAGGSLRLSCAASGRIFGWYAMGWYRQAPGKERELVATIRKSGGRTYYADSVKGRFTLSRDNAKNTVYFQMNSLKQEDTAVYYCAAENTAAGQGLWGEDYWGQGTQVTVSS”, the “polyreactivity (PSR sort gate)” value is recorded as “high polyreactivity”.

In the case of “QVQLVESGGGLVQAGGSLRLSCAASGRIFGWYSMGWYRQAPGKERELVAAISSNGGSTYYADSVKGRFTISRDNAKNTVYLQMNSLKPEDTAVYFCAAVRVFQYKYDRFNYWGQGTQVTVSS”, the “polyreactivity (PSR sort gate)” value was “high polyreactivity”.

As for “QVQLVESGGGLVQAGGSLRLSCAASGRIFGYNAMGWYRPAPGNERELVAAISWSGGNTYYADSVKGRFTISRDHAKNTVYLQMNSLKPEDTAVYYCNASPYRYRPSEYDYWGQGTQVTVSS”, the “polyreactivity (PSR sort gate)” value was “high polyreactivity”.

As for “QVQLVESGGGLVQAGGSLRLSCAASGRIFGYNAMGWYRQAPGKERELVAAINSDGSKNYADSVKGRFTISRDNAKNTVYLQMNSLKPEDTAVYYCAADGHVGPLGVSFDSWGQGSQVTVSS”, the “polyreactivity (PSR sort gate)” value is on record as “low polyreactivity”.

Regarding “QVQLVESGGGLVQAGGSLRLSCAASGRIFGYNAMGWYRQAPGKERELVAAITTSGGSTYYADSVKGRFTISRDNAKNTVYLQMNSLKPEVTAVYYCAGDSLQVFYPYASDDYWGHGTQVTVSS”, the “polyreactivity (PSR sort gate)” value is “low polyreactivity”.

On to “QVQLVESGGGLVQAGGSLRLSCAASGRIFGYNAMGWYRQAPGKERELVASIRSGGSTNYADSVKGRFTISRDNAKNTVYLQMNSLKPEDTAVYYCAKSYRWHLNGGLGWRLGNYWGQGTQVTVSS”, for which the “polyreactivity (PSR sort gate)” value is given as “high polyreactivity”.

Take “QVQLVESGGGLVQAGGSLRLSCAASGRIFGYNAMGWYRQAPGKERELVASITRGGSTNYADSVKGRFTISRDNAKNTVYLQMNSLKPEDTAVYYCATRWPHYGGYYYWGQGTQVTVSS”: the “polyreactivity (PSR sort gate)” value is “high polyreactivity”.

On to “QVQLVESGGGLVQAGGSLRLSCAASGRIFGYNAMGWYRQATGKERELVAGITRNDGSTYYADSVKGRFTISRDNAKNTVYLLMNSLKPEDTAVYYCYRYLHLAGSWGQGTQVTVSS”, for which the “polyreactivity (PSR sort gate)” value was “low polyreactivity”.

“QVQLVESGGGLVQAGGSLRLSCAASGRIFGYNPMGWYRQAPGKERELVAAITTSGGSTYYADSVKGRFTISRDNAKNTVYLQMNSQKPEDTAVYYCARDSLQVFYPYASDDYWGQGTQVTVSS”: the “polyreactivity (PSR sort gate)” value is given as “low polyreactivity”.

Regarding “QVQLVESGGGLVQAGGSLRLSCAASGRIFGYYAMGWFRQAPGKERELVATITFGGGSTYYADSVKGRFTISRDNAKNTVYLQMNSPKPEDTAVYYCAADSGYLGIYGDEYSWGQGTQVTVSS”, the “polyreactivity (PSR sort gate)” value is on record as “low polyreactivity”.

On to “QVQLVESGGGLVQAGGSLRLSCAASGRIFGYYAMGWSRQAPGKEWELVAAISSGGRTYYADSVKGRFTISRDNAKNTVYLQMNSLKPEDTAVYYCAARSRVPPAGPRYDYWGQGTQVTVSS”, for which the “polyreactivity (PSR sort gate)” value was “high polyreactivity”.

On to “QVQLVESGGGLVQAGGSLRLSCAASGRIFGYYAMGWYRQAPGKERELVAAISSGGNTNYADSVKGRFTISRDNAKNTVYLQMYSLKPEDTAVFYCAAYHFSFGWIRVDYWGQGTQVTVSS”, for which the “polyreactivity (PSR sort gate)” value was “high polyreactivity”.

“QVQLVESGGGLVQAGGSLRLSCAASGRIFGYYAMGWYRQAPGKERELVAAISWSGGRTYYADSVKGRFTISRDNAKNTVYLQMNSLKPEDTAVYYCNKVYRVPITEEYDYWGQGTQVTVSS”: the “polyreactivity (PSR sort gate)” value is on record as “high polyreactivity”.

Regarding “QVQLVESGGGLVQAGGSLRLSCAASGRIFGYYAMGWYRQAPGKERELVAAITRNGGSTYYADSVKGRFTISRDNAKNTVYLQMNSLKPEDTAVYYCAATKGGGRGYWGQGTQVTVSS”, the “polyreactivity (PSR sort gate)” value is listed as “high polyreactivity”.

Consider “QVQLVESGGGLVQAGGSLRLSCAASGRIFGYYAMGWYRQAPGKERELVASIRRGTRTNYADSVKGRFTISRDNAKNTVYLQMNSLKPEDTAVYYCAATRFQFTTTPWYDYWGQGTQVTVSS”, for which the “polyreactivity (PSR sort gate)” value is “high polyreactivity”.

On to “QVQLVESGGGLVQAGGSLRLSCAASGRIFGYYAMGWYRQAPGKERELVAVISWSGGSTYYADSVKGRFTISRDNAMNTVYLQMNSLKPEDSAVYYCAAERLYSIYDYWGQGTQVTVSS”, for which the “polyreactivity (PSR sort gate)” value is listed as “high polyreactivity”.

“QVQLVESGGGLVQAGGSLRLSCAASGRIFGYYARGWYRQAPGKEREFVAGITQRTDSTYYADSVKGRFTISRDNAKNTVYLQMNSLKPEDTAVYFCAARGYGGYHWGYYWGQGTQVTVSS”: the “polyreactivity (PSR sort gate)” value is “high polyreactivity”.

Take “QVQLVESGGGLVQAGGSLRLSCAASGRIFGYYTMGWYRQAPGKEREFVAAISYRGGSTYYADSVKGRFTISRDNAKNTVYLQKNSLKPEDTAVYYCNARKSYYTVRSYDSWGQGTQVTVSS”: the “polyreactivity (PSR sort gate)” value was “high polyreactivity”.

As for “QVQLVESGGGLVQAGGSLRLSCAASGRIFGYYTMGWYRQAPGKERELVATITGGGGSTYYADSVKGRFTISRDNAKNTVYLQMNSLKPEDTAVYYCAKRNWKYVSHRHSYYETYDYWGQGTQVTVSS”, the “polyreactivity (PSR sort gate)” value is recorded as “high polyreactivity”.

As for “QVQLVESGGGLVQAGGSLRLSCAASGRIFGYYVMGWYRQAPGKERELVAAINYDGGSTYYADSVKGRFTISRDNAKNTVYLQMNSLKPEDTAVYYCAAAIGNSEYGWRYDYWGQGTQVTVSS”, the “polyreactivity (PSR sort gate)” value is recorded as “low polyreactivity”.

Take “QVQLVESGGGLVQAGGSLRLSCAASGRIFGYYVMGWYRQAPGQERELVARIRSGGNTYYADSVKGRFTISRDNAKNTVYLQMNSLKPEDTAVYYCNADPRTGWYKYDYWGQGTQVTVSS”: the “polyreactivity (PSR sort gate)” value is “high polyreactivity”.

For “QVQLVESGGGLVQAGGSLRLSCAASGRIFHGYAMGWYRQAPGKERELVAVIRSGVNTNYADSVKGRFTISRDNAKNTVYLQMNSLKPEDTAVYYCAVDYTPEDWGDDYWGQGTQVTVSS”, the “polyreactivity (PSR sort gate)” value is recorded as “low polyreactivity”.

With “QVQLVESGGGLVQAGGSLRLSCAASGRIFHKYTMGRYRQAPGKERELVAAISFSTGNTFYADSVKGRFTISRDTANNTVFLQMNSLKPEDTAVYYCATDVLYPDYDYWGQGTQVTVSS”, the “polyreactivity (PSR sort gate)” value is reported as “low polyreactivity”.

For “QVQLVESGGGLVQAGGSLRLSCAASGRIFHRYAMGWDRQAPGKERELVAAINWRTGNTYYADSVKGRFTISRDNAKNTVYLQMNSLTPEDTAVYYCNARYRSDYWGIQYDYWGQGTQVTVSS”, the “polyreactivity (PSR sort gate)” value was “high polyreactivity”.

“QVQLVESGGGLVQAGGSLRLSCAASGRIFHRYAMGWYRQAPGKERELVAAITRGGSTNYADSVKGRFTISRDNAKNTVYLQMNSLKPEDTAVYYCNADVYAWYLSHRYDYWGQGTQVTVSS”: the “polyreactivity (PSR sort gate)” value is “low polyreactivity”.

With “QVQLVESGGGLVQAGGSLRLSCAASGRIFHSYAMGWYRQAPGKERELVAAISSGGNTYYADSVKGRFTISRDNAKNTVYLQMNSLKPEDTAVYDCARDWDFLYDGFHSDSYEYWGQGTQVTVSS”, the “polyreactivity (PSR sort gate)” value is “low polyreactivity”.
